Data published in the nanobody polyreactivity screen of Harvey et al. (2022).

Assay: yeast display, Sf9 membrane polyspecificity reagent, FACS + sequencing; frameworks hold sequencing errors
Summary of the method: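 Galactose-induced (36–48 hours) yeast carrying a synthetic nanobody display library were exposed to 10% biotinylated, detergent-solubilized Sf9 membrane reagent at 4 °C for 1 hour. FACS followed streptavidin microbead enrichment, using low and high (top ~1%) gates for expression (anti-HA) and reagent binding (streptavidin). Colony PCR, MiSeq 2 × 250 sequencing and CDR-length filtering followed. Labels for polyreactivity reflect the gate of origin.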

Sequence	polyreactivity (PSR sort gate)
QVQLVESGGGLVQAGGSLRLSCAASGRTFTHNTMGWYRQAPGKERELVAAISRSGASTYYADSVKGRFTISRDNAKNTVYLQMNSLKPEDTAVYYCNAYSRPHFGYVVGTKSRHGYWGQGTQVTVSS	high polyreactivity
QVQLVESGGGLVQAGGSLRLSCAASGRTLQAYAMGWYRQAPGKERELVAAINSSGGTTYYADSVKGRFTISRDNAKNTVYLQMNSLKPEDTAVYYCAATYWYHGRYYWYAYDYWGQGTQVTVSS	high polyreactivity
QVQLVESGGGLVQAGGSLRISCAASGITLYGNVMGWYRQAPGKERELVAAISGGSTFYADSVKGRFTISRDNAKNTVYLQMNSLKPEDTAVYYCAAEWYGYGSNVPYYYWGQGTQVTVSS	low polyreactivity
QVQLVESGGGLVQAGGSLRLSCAASGIIFSSNAMGWYRPAPGKERELVAAISNTGRTNYADSVKGRFTISRDNEKNTVYLQMNSLKPEDTAVYYCDARLSRRYYSYYYWGQGTQVTVSS	high polyreactivity
QDQLVESGGGLVQAGGSLRLSCAASGSIFYVNTMGWYRQAHGKERELVADISSGDSTYYADSVKGRFTISRDNAKNTVYLQMNSLKPEDTAVYYCIADVYSWVSGKEGDYWGQGTQVTVSS	low polyreactivity
QVQLVESGGGLVQAGGSLRLSCADSGSIFLPYAMGCYRKAPGKERELVAAITWGGDSTYADSVKGRFTISRDNAKNTVYLQMNSQKPEDTAVYYCAAGAGFESDYWGQGTQVTVSS	low polyreactivity
QVQLVESGGGLVQAGGSLRLSCAASGFTFDAYTMGWYREAPGKERELVAAINWSGDTTYYADSVKGRFTISRDNAMNTVYLQMNSLKPEDTAVYYCAAVWLNYGVWFDYWGQGTQVTVSS	high polyreactivity
QVQLVESGGGLVQAGGSLRLSCAASGRIFHANAMGWYRQAPGKERELVAGISRNGGRTYYADSVKGRFTISRDNAKNTVYLQMNSLKPEDSAVYYCNALHWHSNELDYYWGQGTQVTVSS	high polyreactivity
QVQLVESGGGLVQAGGSLRLSCAASGFTFTYNAMGWYRKAPGKERELVAALTANGGGTNYADSVKGRFTISRDNAKNTVYLQMNSLKPEDTAVYYCAATIVVAVFESLGFYWYTEDNYWGQGTQVTVSS	low polyreactivity
QDQHVESGGGLDQAGGSLRLSCAASGRIFSYNTMGWYRQAPGQERELVAASSSSGGSTYYADSVKGRFTISRDNAKNTVYLQMNSLKPEDTAVYYCNAVGRFSTRREYWGQGTQVTVSS	high polyreactivity
QVQLVESRGGLVQARGSLRLSCAASGSTFVYYALGWYRTAPGTERELVAAITQRGGNTYYADSVKGRFTISRDNAKNTVYLQMNSLKPVDTAVYYCATKSYSQYFKFYYWGQGTQVTVSS	high polyreactivity
QDQLVESGGGLVQAGGSLRLSCAASGRILINNAMVWYRQAPGKERELVARITRGGRTNYADSVNGRFTISRDNPKNTDYFQMYCPKPVDTAVYDCNAEYVTPYYYGFGAKRDYWGQGTQVTVSS	low polyreactivity
QVQLVESGGCLVQAGGSLRLSCAASGRSFRLYAMGGYRQAPGKERELVAAITRGGRTNYADSVKGRFTISRDNAKNTVYLQMNSLKPEDTAVYYCAARYVERHTDYYYWGQGTQVTVSS	low polyreactivity
QVQRVESGGGLVQAGGSLRLSSAASGPIYGDYAMGWYRQEPGKERELVADITWSGGSTYYADSVKGRFTISRDNAKNTVYLQMNSLKPEDTAVYYCNADVWFYYTFDYWGLGTQVTVSS	low polyreactivity
QVQLVESGGGLVQAGGSLRLSCAASGFTFRWYDMGWYRQAPGKERELVAAITWRGDNTYYADSVKGRFTISRDNAKNTVYLQMNSLKPEDTAVYYCAAAWPTFISDLSGVDYWGQGTQVTVSS	low polyreactivity
QVQLVESGGGLVQAGGSLRLSCAASGRTFVLNAMGWYRPAPGKERELVAAITLGGGSTYADSVKGRFTISRDNAKNTVYLQMNSLKPEDTAVYYCAADFHYPAFEYWGQGTQVTVSS	low polyreactivity

Sequence	polyreactivity (PSR sort gate)
QVQLVESGGGLVQAGGSLRLICAASGLILKNYAMGWYRQAPGKERELVAAITRSGGSTYYADSVKGRFTISRDNAKNTVYLQMNSLKPEDTAVYDCAARNPSGKGRYDYWGQGTQVTVSS	high polyreactivity
QVQLVESGGCLVQAGGRLRLSCAASGFIFHGYAMGWYRPAPGKERELVAAISSRGGTTYYADSVQGRFTISRDKAKTTVYLQMNSLKPEDSAVDDCAADKIRYITSPVPFYYWGQGTQVTVSS	high polyreactivity
QVQIVESGGGLVQAGGSLRLSCAASGSIFRRYAMGWYRQEPGKERELVAAISSNGGSTYNADSVKGRFTISRDNAKNTVYLQMNSLKPEDTAVYYCNAPPLYRDEYWGQGTQVSVSS	high polyreactivity
QVPLVESVGGLVQAGGSLRISCAASGSTLRGYAMGWYRKAPGKERELVAAISWRGGSTYYADSVKGRFTISRDNAKNTVYLQMNSLKPEDTAVYYCNALVAGHKYYTVTSKYDYWGQGTQLTVSS	high polyreactivity
QVQLVESGGGLVQAGGSLRLSCAASGSIFVGNAMGWYRQAPGKEWELVAAISAGGSTYYADSVKGRFTISRDNAKNTVYLKLNSLKTEDTAVYYCAAYYVRRYSSRPKDDYWGQGTQVTVSS	low polyreactivity
QVQHVESGGGLVQAGGSLRLSCDASGSTFPYYTMGWYRQAPGKERELVAAITWRGGRTYYADSVKGRFTISRDNAKNTVYLQMNSLKPEDTAVYYCATGYSYRGYSALSGYDYWGQGTQVTVSS	high polyreactivity
QFQLVESGGGLVQAGGSLRLSCAASGFIFQRYAMGWYRQAPGKERELVAAINFSGGSTYYADSVKGRFTISRDNAKNTVYLQMNSLKPEDTAVYYCNTGNITQTKSIFDYWGQGSQVTVSS	high polyreactivity
QVQLVESGGGLVQAGGSLRLSCAASGSIFRVYAMGWYRQAPGKERELVAGITGRGGSTYYADSVKGRFTISRDNAKNTVYLQMNSLKPEDTAVYYCNRRYRYGRDYWGQGTQVTVSS	high polyreactivity
QVQLVESGGGLVQAGGSLRLSCAASGFIFYTYAMGWYRQAPGKERELVAAISRGGRTNYADSVKGRFTISRDNAKNSVYLQMNSLKPEDTAVYYCASSYSHRYDYWGQGTQVTVSS	high polyreactivity
QVQLVESGGGLVQAGGSLRLSCAASGSIFYIYAMGWSRQAPGKERELVASITFSGDITYYADSVKGRFTISRDNAKNTVYLQMNSLKPEDTAVYYCNTRTPYWFKSDYWGQGTQVTVSS	low polyreactivity
QVQLVESGGGLVQAGGSLRLSCAASGFTFYFYALGWYRQAPGKERELVATITIGGRTNYADSVKGRFTISRDNAKNTVYLQMNSLKPEDTAVYYCAAAYLWISRYSGYDYWGQGTQVTVSS	high polyreactivity
QVQLVESGGGLVQAGGSLRLSCAASGSIFVVYAMGWYRQAPGKERELVAGISDGDNTNYADSVKGRVTISRDNAKNTVYLQMNSLKPEDTAVYYCNADGTSRNLEGFDYWGQGTQVTVSS	low polyreactivity
QVQLVESGGGLVQAGGSLRLSCAASGRTFWYYAMGWYRQAPGTERELVAAITYRGTRTYADSVKGRFTISRDNAKNTVYLQMNSQKPEDTPVYYCAKDVGYRYSGTMDYWGQGTQVTVSS	high polyreactivity
QVQLVESGGGLVHAGGSLRLSCAAYGRTFYTYAMGWYSQAPGKVRELVAAISSSGSTYYADSVKGRFTISRDNAKYTVYLQMNSLKPEDTAVYYCNARTSRYRRGGDSWGQGTQVTVSS	high polyreactivity
QVQHVESGGGLVQAGGSLRLSCAASGFTFYSYAMGWYRQSPGKERELVANITIGGSTYADSVKGRFTISRENAKNTVYLQMNSLKPEDTAVYYCAKQYGGRYGYWGQGTQVTVSS	low polyreactivity
QVQLVESGGGLVQAGGSLRLSCAASGSIFNYYDMGWYRQAPGKERELVAAIDLTGGTTYYADSVKGRFTISRDNAKNTVYLQMNSLKPEDTAVYYCAAQYIRSSWWGYDYWGQGTQVTVSS	low polyreactivity
